Test results from the RNAGym collection of RNA variant scans (doi:10.1073/pnas.2313332121).
Fewer inactive variants are shown than the library holds.

B1: TPR 5TU (parent)
chain: GGAUCUUCUCGAUCUAACAAAAAAGACAAAUCUGCCACAAAGCUUGAGAGCAUCUUCGGAUGCAGAGGCGGCAGCCUUCGGUGGCGCGAUAGCGCCAACGUUCUCAACUAUGACACGCAAAACGCGUGCUCCGUUGAAUGGAGUUUAUCAUG

Variants of: B1
Assay: polymerase ribozyme fitness, log enrichment relative to wild type (log ratio); higher = more active; in vitro selection for triplet polymerase activity
Procedure, shortened: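 Mutant libraries of each subunit of a heterodimeric triplet polymerase ribozyme were built by PCR and transcribed. Each library went through one round of in vitro selection in triplicate: annealing with biotinylated primer, partner subunit and triplets, frozen incubation at −7 °C, gel excision of extended constructs, streptavidin-bead capture and RT-PCR. Input and output libraries were Illumina-sequenced; only genotypes with ≥10 input reads and ≥1 read per output were kept. Fitness is log2(genotype enrichment/wild-type enrichment), using inverse-variance-weighted replicate averages.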

Row | Variant | polymerase ribozyme fitness (log ratio)
1 | U31A C125A | 0.0765
2 | C18G A24G C57U C93G G94C G117C | ≤ -4.2
3 | A39C G62A A66U U134G G143A | ≤ -4.2
4 | A12C U139A | ≤ -4.2
5 | A49U U56G G81A G94A U146G | ≤ -4.2
6 | A17U G50U C63U C93U C103U G126A C132U | -3.74
7 | C87G A142G | -4.14
8 | A20U G46C G62U C75G G92A G140C | ≤ -4.2
9 | C14U C76A C87U | -3.49
10 | C116G U146G | -0.306
11 | A30G C32G U56A C57G G86U A142G | ≤ -4.2
12 | U45G C87U U101C | -3.99
13 | A37G A39U G58C G62A C63U A64U U77A C87G C103G A150U | ≤ -4.2
14 | G80A G81A A120C | -0.393
15 | A3G U4A C54U U102G C125G | -3.99
16 | C69U C132G G140U | -1
17 | A41C C57G | -1.09
18 | U101C A150G | -1.59
19 | U55A C63A G83C G84U C125G U135A | ≤ -4.2
20 | C14A C85A | -2.69
21 | G94C A122C A137U | -4.05
22 | C5A A17U G83U C87G | ≤ -4.2
23 | U61A C125U | -1.86
24 | A30U C69U G83A | ≤ -4.2

Row | Variant | polymerase ribozyme fitness (log ratio)
25 | C10A A20G A23C A24U A26G C85G A91G G100U A115G | ≤ -4.2
26 | A17C U53G U55A A121G | -1.71
27 | C69A G83C | -3.07
28 | G62C C95U C96A | -3.59
29 | A49C G50C G81C A110U | ≤ -4.2
30 | U33C A39C G88A C118G C123A | ≤ -4.2
31 | A21C C93G | -3
32 | A16U C87A G100A | ≤ -4.2
33 | C93U A110U | -4.1
34 | U13C C38G U53A U82G G92A C105G C114U G128C U151C | ≤ -4.2
35 | C32G C38U G58A U82A C96A U104G A110C G133A U139A G152U | ≤ -4.2
36 | A91G U104G A115C | -4.06
37 | C32A U55A C76U A89G G92U A119G | ≤ -4.2
38 | U13G C14G U31G | -1.43
39 | C51U U56A C57A C105G A122G | -2.19
40 | U56A A64U | -4.19
41 | G94U A142U | -1.73
42 | U45G G92U C103A U104A | ≤ -4.2
43 | C5A C85G C105U | -1.21
44 | U15G A60G C87G C103G A147C | ≤ -4.2
45 | A41C G59A G94A A119C | -1.52
46 | U55A C76U C93U C95U G143A | -2.72
47 | G140U U146C | -3.33
48 | U7G A64G C87A C105A U144G | ≤ -4.2

Row | Variant | polymerase ribozyme fitness (log ratio)
49 | G50U C96A C116G U144G | -1.25
50 | A73U G81U A106G A115G A119U A147C | ≤ -4.2
51 | C8G C14G C18G C96U A137U | ≤ -4.2
52 | U44A G117U | ≤ -4.2
53 | A23U A26U C51A A66U C85U U148C | ≤ -4.2
54 | C8A A73G C93A U146C | -4.17
55 | A41C U61A A138U | -3.7
56 | C54U U55C C72U C87A | ≤ -4.2
57 | A115U U148G | -4.15
58 | A30C C72G G86U A106G U144C C149G | ≤ -4.2
59 | U15A A29C C38U A119U G126A U144A C149G | ≤ -4.2
60 | A52C C85U G94C G141C | -3.45
61 | C10G A20G A138G U144A U145A | ≤ -4.2
62 | G84A A150G | -0.63
63 | A26U G34U G59C G62A C75G C93G U104A G152A | ≤ -4.2
64 | A24U A26C C27G C36G G81A A98G G136U U139G A142C | ≤ -4.2
65 | A23U G68C C76G G80C A89U U148G | ≤ -4.2
66 | G58C A73G G84U | -1.97
67 | G48C G50U G92C U145G | -4.11
68 | A21C A41U G71A A98U G136U A147U U148C | ≤ -4.2
69 | A20G A21U A26U A29U A39C A91G G94U A97G C99A C131A A142G | ≤ -4.2
70 | U9G A16U G80A G83C | -4.08
71 | U9C A28C C36A C87U C116U | ≤ -4.2
72 | C18U A37U U144A | -1.92

Row | Variant | polymerase ribozyme fitness (log ratio)
73 | C27G | -3.12
74 | G83C G136C U146G | -3.41
75 | A20U A29U U55A A66C A106U A138U | ≤ -4.2
76 | C10G C51U G92A G124C | ≤ -4.2
77 | G11A C14G A30U U44A U45A G92U | ≤ -4.2
78 | G81A A89C A119U C132G U135C G143C U148A | ≤ -4.2
79 | C54A C96G | -1.71
80 | U9A G50A G94U | ≤ -4.2
81 | C54A G94U A97C C125G | -2.89
82 | U61A A73C | -3.91
83 | G59C C85G C95U C116A | -2.38
84 | G81A C118A | -1.82
85 | A17G C27A C35G C75A G86C A142G | ≤ -4.2
86 | A97G G141C | -1.86
87 | A12C C14U U55A A98G C103G G133A | ≤ -4.2
88 | C5A G86C G92U | -3.93
89 | G92A C105A A147U | -4.16
90 | G50A C69U G84U A98U A122G | ≤ -4.2
91 | A12G G88A U109C A142C | -4.12
92 | A60G U61A A97G | -1.38
93 | A23C A98U A113U | -4.18
94 | G81U C85A C95A | -1.06
95 | G50A U53A U55A U56A G67C G92A G126U | ≤ -4.2
96 | A49C C54U U55A A91U C108U G152A | ≤ -4.2

Row | Variant | polymerase ribozyme fitness (log ratio)
97 | U6G U78A G84U A91C C108A A121C | ≤ -4.2
98 | G59C G83A C87A A137U G140U | ≤ -4.2
99 | A107U A110U C114U | ≤ -4.2
100 | G50A G143C | -3.85
101 | C57U G94A | -0.629
102 | U4A G50A U82G U134C | -2.39
103 | A40C U82G A89G | 0.203
104 | U82A A106U C116U G126U U145C | -2.88
105 | U44G G58C C87G | ≤ -4.2
106 | A49C C51A C99U C132G | ≤ -4.2
107 | U56C U109A U127C | -3.65
108 | U9A U15C G48A G50C C96A G133C | ≤ -4.2
109 | C43U C79A | -4.15
110 | A12C A19C C99U | -1.52
111 | C32A U61A C63G A66U U77G | ≤ -4.2
112 | A30G A91U A137G G141U | ≤ -4.2
113 | G59C A89C C93U G117C A120G U135A | -3.35
114 | A22U A30U C32A U78G G88A G117U U139G | ≤ -4.2
115 | A23U G50A C132U G140C | ≤ -4.2
116 | C85U A115U G140A | -3.77
117 | G59A C99A G140U | -3.99
118 | G48C U55A A107U U111G | ≤ -4.2
119 | A17G G70A C85G | ≤ -4.2
120 | U9A C57G G84U | ≤ -4.2

Row | Variant | polymerase ribozyme fitness (log ratio)
121 | G71U A142C | ≤ -4.2
122 | C38U A73G C87U | 0.139
123 | C8A A17U A26U G48U G68U C93G C132G G141C U148G | ≤ -4.2
124 | G67A C87U A107U C125G G126C | -4.14
125 | C32A G74C G81C G94A A121U | -4.03
126 | A12U U55A C87U A119U U127C | -3.82
127 | A40G A60G U61C G84A | -3.52
128 | G84A U109G | -1.95
129 | G86C C105U | -1.5
130 | U7A G94C U111C U135A A138U | -3.87
131 | A17C G59A A60C G81C C95U C116U | 0.238
132 | C87U G140U | -3.68
133 | U13A A29U U44A C72G C96U A97U | ≤ -4.2
134 | A52C C96U U130A U144G A147C | -3.6
135 | A40G G70C C85A | ≤ -4.2
136 | A29U C35A A60G C85A G126A | ≤ -4.2
137 | A17G C36U C93G | -3.8
138 | U61A A137C G140A | -4.19
139 | C51U C85A | -2.63
140 | G112A | -1.96
141 | G25U A89U C96G G100A U102C C118A A119G | ≤ -4.2
142 | C79U U90A A106U | ≤ -4.2
143 | C18U A29U A30U G70C C149G | ≤ -4.2
144 | C35U G62A G83U G86C C125G A142U | ≤ -4.2

Row | Variant | polymerase ribozyme fitness (log ratio)
145 | A24C U45A C57U G84A | ≤ -4.2
146 | A22C C43U C51U C76A C93A C125G | ≤ -4.2
147 | C93G C105A G136U | ≤ -4.2
148 | C5A A12U | 0.264
149 | A37C U56A U90A C103G A121U C123U G141C | ≤ -4.2
150 | G94U G141C | -1.45
151 | G84U C99G C103U | ≤ -4.2
152 | A19C G62U C95U C96A | -2.36
153 | A22U A37C G83C C114G | -3.92
154 | C54U A107U U111G U135A U146C | -4
155 | A52G U55A C87G | ≤ -4.2
156 | A49U G88A | ≤ -4.2
157 | C5G C85U A142U | -1.45
158 | G59A G86A | -2.02
159 | G94A C116U A122U G136A | -0.164
160 | U13A U61A C85U | -2.01
161 | A19U A30C C95G | ≤ -4.2
162 | A21G G94A | -1.01
163 | C8G C18U C38U G50C C54U G65C C87U C99G | ≤ -4.2
164 | U6G A28C C76G G92U | ≤ -4.2
165 | C103A A115C | -2.54
166 | A3C G25A A40U G71A C85U C96U A119C A121G G140C | ≤ -4.2
167 | C54A C57A C87A A89G | ≤ -4.2
